Data: patent publication US20210388108A1 (GLYCARDIAL DIAGNOSTICS S L, published 2021)
No end group written: not given here. *: point of attachment. Biotin = O=C1N[C@H]2[C@H](CS[C@H]2CCCCC(=O)*)N1; GlcNAc = N-acetylglucosamine

T1: Ag4G (Bio-EEFLN(GlcNAc)QSSP)
T1 peptide: Biotin-EEFLN(GlcNAc)QSSP

T2: Ag1G (Bio-REIRHN(GlcNAc)STGC)
T2 peptide: Biotin-REIRHN(GlcNAc)STGC

B1: Ag4G-6 (antibody, V domains shown)
VH: QQLEESGGRLVTPGTPLTLTCTASGMDLSKYWMTWVRQAPGKGLEYIGIIETGGSAYYASWAKGRFTISRTSTTVDLKMISPTTEDTATYFCGRWGDIWGPGTLVTVSS
VL: MTQTPASVEVAVGGTVTIKCQASQSINGYLAWYQQKPGQPPKLLIYQASTLASGVSSRFQGSGSGTEYTLTISGVQCDDAATYYCQGDYYGWIRTFGGGTEVVVKR
notes: Rabbit/human chimeric clone from a Fab phage library; tested 'in the form of IgG'; the FWR4 entries as printed run on into human C kappa (light) and human CH1 plus His tag (heavy), i.e. the Fab format; also called Apo J-GlcNAc Ag4G-6
B2: Ag1G-11 (antibody, V domains shown)
VH: QSLEESGGRLVTPGGSLTLTCTVSGFSLSSYAMSWVRQAPGKGLEWIGIIGVNGDTYYASWAKGRFTISKTSTTVGLKITSPTTEDTATYFCARVRYPYYDTDAFDPWGPGTLVTISS
VL: DPVLTQTPSPVSAAVGGTVTINCQASQSVYNNNELSWYQQKPGQPPKPLIYQASKLASGVPSRFKGSGSGTQFTLTISDLECDDAATYYCQGIYLGSDWYDVFGGGTEVVVKR
notes: Rabbit/human chimeric clone from a Fab phage library; tested 'in the form of IgG'; the FWR4 entries as printed run on into human C kappa (light) and human CH1 plus His tag (heavy), i.e. the Fab format; also called Apo J-GlcNAc Ag1G-11

Key:
[1] = biological target: T1, Ag4G (Bio-EEFLN(GlcNAc)QSSP); test: QC ELISA of the IgG on its target peptide
[2] = biological target: T2, Ag1G (Bio-REIRHN(GlcNAc)STGC); test: QC ELISA of the IgG on its target peptide

Binder | binding result [1] | binding result [2]
B1 | binds | 
B2 |  | binds
